Binding signal data for 42 molecules are collected here from paper PMC5892938, “SARNAclust: Semi-automatic detection of RNA protein binding motifs from immunoprecipitation data”.

The labels stand for the following.
B1: consensus (structured_RNA)
RNA: GGUCACGUCUCAAUCAACUCCCAAAGGCCCUUUUCAGGGCCACCCAUCAACAGCUCGCAGUCAAG
B2: consensus (structured_RNA)
RNA: GGUCACGUCUCAAUCAACUCCCAAAGGUCCUUUUAAGGACCACCCAUCAACAGCUCGCAGUCAAG
B3: consensus (structured_RNA)
RNA: GGUCACGUCUCAAUCAACUCCCAAAGGCUCUUUUCAGGGCCACCCAUCAACAGCUCGCAGUCAAG
B4: consensus (structured_RNA)
RNA: GGUCACGUCUCAAUCAACUCCCAAAGGCUUUUUUCAGAGCCACCCAUCAACAGCUCGCAGUCAAG
B5: consensus (structured_RNA)
RNA: GGUCACGUCUCAAUCAACUCCCAAAGGCCUUUUUAAGGGCCACCCAUCAACAGCUCGCAGUCAAG
B6: consensus (structured_RNA)
RNA: GGUCACGUCUCAAUCAACUCCCAAAGGUCCUUCUGAGGGCCACCCAUCAACAGCUCGCAGUCAAG
B7: consensus (structured_RNA)
RNA: GGUCACGUCUCAAUCAACUCCCAAAGGUUCUUCUUAGGACCACCCAUCAACAGCUCGCAGUCAAG
B8: consensus (structured_RNA)
RNA: GGUCACGUCUCAAUCAACUCCCAAAGGUUCUUCUUAGAGCCACCCAUCAACAGCUCGCAGUCAAG
B9: consensus (structured_RNA)
RNA: GGUCACGUCUCAAUCAACUCCCAAAGGCUUUUUUCAGGGCCACCCAUCAACAGCUCGCAGUCAAG
B10: consensus (structured_RNA)
RNA: GGUCACGUCUCAAUCAACUCCCAAAGGUCUUUUUAAGGACCACCCAUCAACAGCUCGCAGUCAAG
B11: consensus (structured_RNA)
RNA: GGUCACGUCUCAAUCAACUCCCAAAGGUCUUUCUAAGGACCACCCAUCAACAGCUCGCAGUCAAG
B12: consensus (structured_RNA)
RNA: GGUCACGUCUCAAUCAACUCCCAAAGGCCUUUUUUAAGGCCACCCAUCAACAGCUCGCAGUCAAG
B13: consensus (structured_RNA)
RNA: GGUCACGUCUCAAUCAACUCCCAAAGGCCUUUCUCAGGGCCACCCAUCAACAGCUCGCAGUCAAG
B14: consensus (structured_RNA)
RNA: GGUCACGUCUCAAUCAACUCCCAAAGGCCUUUUUCAGGGCCACCCAUCAACAGCUCGCAGUCAAG
B15: consensus (structured_RNA)
RNA: GGUCACGUCUCAAUCAACUCCCAAAGGCCUUUCUUAGGGCCACCCAUCAACAGCUCGCAGUCAAG
B16: consensus (structured_RNA)
RNA: GGUCACGUCUCAAUCAACUCCCAAAGGCCUUUUUUAGGGCCACCCAUCAACAGCUCGCAGUCAAG
B17: consensus (structured_RNA)
RNA: GGUCACGUCUCAAUCAACUCCCAAAGGCUUUUUUAAGGGCCACCCAUCAACAGCUCGCAGUCAAG
B18: consensus (structured_RNA)
RNA: GGUCACGUCUCAAUCAACUCCCAAAGGUCUUUUUAAGGGCCACCCAUCAACAGCUCGCAGUCAAG
B19: consensus (structured_RNA)
RNA: GGUCACGUCUCAAUCAACUCCCAAAGGCUUUUUUAAGAGCCACCCAUCAACAGCUCGCAGUCAAG
B20: consensus (structured_RNA)
RNA: GGUCACGUCUCAAUCAACUCCCAAAGGCUUUUCUAAGGGCCACCCAUCAACAGCUCGCAGUCAAG
B21: consensus (structured_RNA)
RNA: GGUCACGUCUCAAUCAACUCCCAAAGGUUUUUCUUAAAGCCACCCAUCAACAGCUCGCAGUCAAG
B22: consensus (structured_RNA)
RNA: GGUCACGUCUCAAUCAACUCCCAAAGGCUUUUCUGAAGGCCACCCAUCAACAGCUCGCAGUCAAG
B23: consensus (structured_RNA)
RNA: GGUCACGUCUCAAUCAACUCCCAAAGGUUUUUUUUAAAGCCACCCAUCAACAGCUCGCAGUCAAG
B24: consensus (structured_RNA)
RNA: GGUCACGUCUCAAUCAACUCCCAAAGGUCUUUCUCAGGACCACCCAUCAACAGCUCGCAGUCAAG
B25: consensus (structured_RNA)
RNA: GGUCACGUCUCAAUCAACUCCCAAAGGCUUUUCUAAGAGCCACCCAUCAACAGCUCGCAGUCAAG
B26: consensus (structured_RNA)
RNA: GGUCACGUCUCAAUCAACUCCCAAAGGCCUUUCUAAGGGCCACCCAUCAACAGCUCGCAGUCAAG
B27: consensus (structured_RNA)
RNA: GGUCACGUCUCAAUCAACUCCCAAAGGCCUUUCUCAAGGCCACCCAUCAACAGCUCGCAGUCAAG
B28: consensus (structured_RNA)
RNA: GGUCACGUCUCAAUCAACUCCCAAAGGCUUUUUUUAGGGCCACCCAUCAACAGCUCGCAGUCAAG
B29: consensus (structured_RNA)
RNA: GGUCACGUCUCAAUCAACUCCCAAAGGUUCUUUUUAGGGCCACCCAUCAACAGCUCGCAGUCAAG
B30: consensus (structured_RNA)
RNA: GGUCACGUCUCAAUCAACUCCCAAAGGUCUUUUUUAGGACCACCCAUCAACAGCUCGCAGUCAAG
B31: consensus (structured_RNA)
RNA: GGUCACGUCUCAAUCAACUCCCAAAGGUCUUUCUAAGGGCCACCCAUCAACAGCUCGCAGUCAAG
B32: consensus (structured_RNA)
RNA: GGUCACGUCUCAAUCAACUCCCAAAGGUCUUUCUGAAGGCCACCCAUCAACAGCUCGCAGUCAAG
B33: consensus (structured_RNA)
RNA: GGUCACGUCUCAAUCAACUCCCAAAGGUUUUUCUGAAAACCACCCAUCAACAGCUCGCAGUCAAG
B34: consensus (structured_RNA)
RNA: GGUCACGUCUCAAUCAACUCCCAAAGGCCUUUUUGAGGGCCACCCAUCAACAGCUCGCAGUCAAG
B35: consensus (structured_RNA)
RNA: GGUCACGUCUCAAUCAACUCCCAAAGGUCCUUUUCAGGACCACCCAUCAACAGCUCGCAGUCAAG
B36: consensus (structured_RNA)
RNA: GGUCACGUCUCAAUCAACUCCCAAAGGUUUUUCUCAAAGCCACCCAUCAACAGCUCGCAGUCAAG
B37: consensus (structured_RNA)
RNA: GGUCACGUCUCAAUCAACUCCCAAAGGCUUUUCUCAGGGCCACCCAUCAACAGCUCGCAGUCAAG
B38: consensus (structured_RNA)
RNA: GGUCACGUCUCAAUCAACUCCCAAAGGUCUUUUUCAGGACCACCCAUCAACAGCUCGCAGUCAAG
B39: consensus (structured_RNA)
RNA: GGUCACGUCUCAAUCAACUCCCAAAGGCUCUUCUGAGGGCCACCCAUCAACAGCUCGCAGUCAAG
B40: consensus (structured_RNA)
RNA: GGUCACGUCUCAAUCAACUCCCAAAGGUUUUUUUGAAAACCACCCAUCAACAGCUCGCAGUCAAG
B41: consensus (structured_RNA)
RNA: GGUCACGUCUCAAUCAACUCCCAAAGGUUUUUUUGAAAGCCACCCAUCAACAGCUCGCAGUCAAG
B42: consensus (structured_RNA)
RNA: GGUCACGUCUCAAUCAACUCCCAAAGGUCUUUUUCAGGGCCACCCAUCAACAGCUCGCAGUCAAG

The target in this data set is GST-SBP-SLBP (stem-loop binding protein) (Homo sapiens, UniProt Q14493 1-270). Kind of data set: targeted RNA Bind-n-Seq; RBNS binding buffer: 25 mM Tris pH 7.5, 150 mM KCl, 3 mM MgCl2, 0.1% Tween, 0.5 mg/mL BSA, 1 mM DTT; 27 nM protein, 750 pM RNA pool; temperature not stated; high values mean tight binding. To be noted: protein: recombinant; tags: N-terminal GST and SBP (pGEX6P1-SBP). The procedure, abridged: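 The protein, carrying a GST-SBP tag, was produced in Rosetta(DE3) pLysS E. coli, purified on glutathione, and mixed at 27 nM with 750 pM of a designed RNA oligo pool made by T7 transcription in RBNS binding buffer. RNA that bound was reverse transcribed using a barcoded primer of 10 nucleotides, amplified by PCR and sequenced on a MiSeq with 200-cycle paired-end reads. FLASH joined the reads, HISAT2 aligned them, and they were collapsed by barcode before the binding signal was taken as the DEseq binary-logarithm fold change of read counts for each sequence.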
As for B1, the binding signal worked out at 3.92 ± 0.166 log2 fold change.
To B2 belongs 3.61 ± 0.128 log2 fold change; to B3, 3.57 ± 0.122 log2 fold change.
To B4 belongs 1.75 ± 0.155 log2 fold change; to B5, 2.24 ± 0.139 log2 fold change; to B6, 2.11 ± 0.151 log2 fold change.
The figure for B7 is 2.26 ± 0.144 log2 fold change; for B8 it is 2.28 ± 0.146 log2 fold change; for B9 it is 1.99 ± 0.171 log2 fold change.
As for B10, the binding signal turned out to be 1.91 ± 0.158 log2 fold change.
The figure for B11 is 1.6 ± 0.134 log2 fold change.
To B12 belongs 3.59 ± 0.129 log2 fold change; to B13, 1.93 ± 0.129 log2 fold change; to B14, 2.4 ± 0.137 log2 fold change.
To B15 belongs 1.28 ± 0.157 log2 fold change; to B16, 1.9 ± 0.154 log2 fold change; to B17, 1.95 ± 0.161 log2 fold change.
For the molecule B18, the binding signal worked out at 1.43 ± 0.177 log2 fold change.
B19: the binding signal turned out to be 1.64 ± 0.15 log2 fold change.
The figure for B20 is 1.52 ± 0.156 log2 fold change; for B21 it is 1.97 ± 0.127 log2 fold change; for B22 it is 2 ± 0.133 log2 fold change.
The figure for B23 is 2.23 ± 0.157 log2 fold change.
Consider B24, for which the binding signal came to 1.31 ± 0.141 log2 fold change.
In the case of B25, the binding signal was determined as 1.33 ± 0.16 log2 fold change.
The figure for B26 is 2.22 ± 0.143 log2 fold change.
As to B27, the binding signal turned out to be 3.84 ± 0.117 log2 fold change.
For the molecule B28, the binding signal amounted to 1.3 ± 0.179 log2 fold change.
The figure for B29 is 2.15 ± 0.148 log2 fold change; for B30 it is 0.994 ± 0.148 log2 fold change; for B31 it is 1.09 ± 0.185 log2 fold change.
B32: the binding signal amounted to 2.15 ± 0.13 log2 fold change.
As to B33, the binding signal stood at 2.15 ± 0.131 log2 fold change.
The figure for B34 is 1.42 ± 0.169 log2 fold change; for B35 it is 3.59 ± 0.127 log2 fold change.
To B36 belongs 2.22 ± 0.14 log2 fold change.
For B37, the binding signal was determined as 1.31 ± 0.138 log2 fold change.
Turning to B38, the binding signal came out at 1.9 ± 0.145 log2 fold change.
With B39, the binding signal was 2.28 ± 0.154 log2 fold change.
The figure for B40 is 2.28 ± 0.151 log2 fold change; for B41 it is 1.56 ± 0.147 log2 fold change.
The figure for B42 is 1.25 ± 0.15 log2 fold change.
